The values that follow come from PMC7527728, “CPSF6-Dependent Targeting of Speckle-Associated Domains Distinguishes Primate from Nonprimate Lentiviral Integration” (mBio, 2020).

Bounds are passed on as bounds.

The target in this experiment is CPSF6_(276–290/F284A) peptide (human). Kind of experiment: fluorescence polarisation; 150 nM FITC-Ahx-labelled peptide mixed with increasing capsid NTD protein (2 μM to 2 mM) in 50 mM Tris-HCl pH 8.0, 50 mM NaCl, 384-well plates; one-site specific binding model; the EIAV constants are called apparent. A general note: Fluorescence polarisation rises when a labelled molecule tumbles more slowly, as on binding a larger partner.

As for “MLV capsid N-terminal domain (NTD) protein (domain or fragment)”, the Kd was over 8 mM.
Regarding “HIV-1 capsid N-terminal domain (NTD) protein (domain or fragment)”, the Kd was over 6 mM.
